Experiments:
[1] = biological target: T1, PA;PB1 (in PA-PB1-PB2(1-116));PB2(1-116) (Influenza A virus A/Victoria/3/1975(H3N2);Influenza A virus A/Victoria/3/1975(H3N2);Influenza A virus A/Victoria/3/1975(H3N2)) (UniProt P03432+H9XIJ5); test: fluorescence anisotropy
[2] = biological target: PA;PB1(1-686) (Influenza A virus A/Victoria/3/1975(H3N2);Influenza A virus A/Victoria/3/1975(H3N2)) (UniProt P03432); test: fluorescence anisotropy; settings: 5'-monophosphate
[3] = system: PA;PB1(1-686);RanBP5 (Influenza A virus A/Victoria/3/1975(H3N2);Influenza A virus A/Victoria/3/1975(H3N2);Homo sapiens), P03432+O00410-3; test: fluorescence anisotropy; settings: 5'-monophosphate
Sequence of PA;PB1(1-686);RanBP5 (Influenza A virus A/Victoria/3/1975(H3N2);Influenza A virus A/Victoria/3/1975(H3N2);Homo sapiens), P03432+O00410-3 (O00410 whole entry, looked up, chain 1 of 2): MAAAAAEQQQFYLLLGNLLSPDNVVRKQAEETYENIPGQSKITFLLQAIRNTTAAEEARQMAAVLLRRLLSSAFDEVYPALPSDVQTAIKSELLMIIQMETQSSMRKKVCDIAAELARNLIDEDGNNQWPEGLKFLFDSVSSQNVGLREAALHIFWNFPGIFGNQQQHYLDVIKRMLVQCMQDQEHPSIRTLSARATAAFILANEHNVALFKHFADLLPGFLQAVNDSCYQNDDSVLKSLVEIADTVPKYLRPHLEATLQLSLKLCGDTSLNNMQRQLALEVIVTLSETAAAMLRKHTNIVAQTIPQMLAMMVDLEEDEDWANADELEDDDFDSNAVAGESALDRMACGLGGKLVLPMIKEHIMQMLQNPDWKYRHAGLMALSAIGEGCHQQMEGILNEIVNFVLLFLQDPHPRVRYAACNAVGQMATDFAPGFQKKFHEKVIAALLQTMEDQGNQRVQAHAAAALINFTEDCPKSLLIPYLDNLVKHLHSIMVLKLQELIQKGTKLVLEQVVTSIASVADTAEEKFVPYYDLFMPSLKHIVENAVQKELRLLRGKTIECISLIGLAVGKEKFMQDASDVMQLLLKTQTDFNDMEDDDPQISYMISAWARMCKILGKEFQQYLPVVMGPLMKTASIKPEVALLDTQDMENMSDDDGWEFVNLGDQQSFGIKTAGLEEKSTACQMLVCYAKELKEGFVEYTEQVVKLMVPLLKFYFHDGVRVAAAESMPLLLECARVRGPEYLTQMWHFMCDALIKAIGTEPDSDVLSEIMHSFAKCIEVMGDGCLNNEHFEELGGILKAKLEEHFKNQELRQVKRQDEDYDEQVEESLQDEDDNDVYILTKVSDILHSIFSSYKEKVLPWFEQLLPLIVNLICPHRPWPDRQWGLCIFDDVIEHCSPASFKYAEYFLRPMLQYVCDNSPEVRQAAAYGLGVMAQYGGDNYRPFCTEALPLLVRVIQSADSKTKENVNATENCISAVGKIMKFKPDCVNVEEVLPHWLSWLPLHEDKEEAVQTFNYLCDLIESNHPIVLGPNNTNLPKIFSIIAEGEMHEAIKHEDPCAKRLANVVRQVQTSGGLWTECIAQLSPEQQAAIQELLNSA
Sequence of PA;PB1(1-686);RanBP5 (Influenza A virus A/Victoria/3/1975(H3N2);Influenza A virus A/Victoria/3/1975(H3N2);Homo sapiens), P03432+O00410-3 (P03432 whole entry, looked up, chain 2 of 2): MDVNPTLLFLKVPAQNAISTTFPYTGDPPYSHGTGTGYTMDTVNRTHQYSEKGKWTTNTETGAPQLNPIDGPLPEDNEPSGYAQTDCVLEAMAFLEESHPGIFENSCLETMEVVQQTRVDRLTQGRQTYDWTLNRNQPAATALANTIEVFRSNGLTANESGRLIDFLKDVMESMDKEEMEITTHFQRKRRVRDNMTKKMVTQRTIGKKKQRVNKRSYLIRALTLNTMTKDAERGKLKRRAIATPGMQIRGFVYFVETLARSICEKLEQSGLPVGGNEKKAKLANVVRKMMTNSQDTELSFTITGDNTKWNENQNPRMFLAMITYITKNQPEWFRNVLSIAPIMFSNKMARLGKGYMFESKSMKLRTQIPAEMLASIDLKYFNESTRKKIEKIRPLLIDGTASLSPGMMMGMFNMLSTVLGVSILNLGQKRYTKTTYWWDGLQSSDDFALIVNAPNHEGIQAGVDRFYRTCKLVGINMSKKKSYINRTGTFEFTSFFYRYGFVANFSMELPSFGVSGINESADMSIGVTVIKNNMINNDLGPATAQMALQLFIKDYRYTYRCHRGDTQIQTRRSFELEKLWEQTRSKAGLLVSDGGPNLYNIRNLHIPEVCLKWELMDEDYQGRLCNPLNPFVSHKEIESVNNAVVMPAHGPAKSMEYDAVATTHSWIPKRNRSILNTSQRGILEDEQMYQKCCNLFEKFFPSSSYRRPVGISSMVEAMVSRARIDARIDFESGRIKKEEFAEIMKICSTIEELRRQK

NP = test: fluorescence anisotropy; settings: 5'-monophosphate
[4] = biological target: T1, PA;PB1 (in PA-PB1-PB2(1-116));PB2(1-116) (Influenza A virus A/Victoria/3/1975(H3N2);Influenza A virus A/Victoria/3/1975(H3N2);Influenza A virus A/Victoria/3/1975(H3N2)); test: filter binding
[5] = biological target: PA;PB1(1-686) (Influenza A virus A/Victoria/3/1975(H3N2);Influenza A virus A/Victoria/3/1975(H3N2)) (UniProt P03432); test: filter binding

T1 sequence (P03432 whole entry, looked up, chain 2 of 2, other chains not shown): as the sequence (P03432 whole entry, looked up, chain 2 of 2) above
Sequence of PA;PB1(1-686) (Influenza A virus A/Victoria/3/1975(H3N2);Influenza A virus A/Victoria/3/1975(H3N2)) (P03432 whole entry, looked up): as the sequence (P03432 whole entry, looked up, chain 2 of 2) above

AGUAGAAACAAGGGUA [5'-vRNAp]
Kd ([1]; 5'-monophosphate): 0.83 nM
Kd [2]: 0.87 nM
Kd [3]: > 1000 nM

AUACCCUGCUUUUGCU [3'-vRNAp]
Kd [1]: 36 nM

UCUCUCUCUCUCUCUCUC [polyUC]
Kd (NP): 29 nM
Kd ([1]; 5'-monophosphate): > 1000 nM

AGUAGAAACAAGGGUA [5'-vRNAp (32P)]
Kd [4]: 0.19 nM
Kd [5]: 0.38 nM

AUACCCUGCUUUUGCU [3'-vRNAp (32P)]
Kd [4]: 17 nM

Source: publication PMC4837377
